In publication PMC6698962 (Antibodies, 2018):
Several values for one entry are separate records, joined by “and”; a condition that tells them apart may be missing. Equal values may be shown once.

Legend:
[1] = biological target: T1, human tumor necrosis factor (TNF) (Homo sapiens (huTNFKI mouse BMDM), UniProt P01375); experiment: flow cytometry on cells; intracellular cytokine staining (BD fixation and permeabilisation kit with GolgiPlug) of BMDM activated by LPS (100 ng/mL, 4 h) in the presence of brefeldin A; Fc-gamma receptor blocked; cells gated on F4/80; Katushka fluorescence read; conditions: one partner purified
T1 construct: tumor necrosis factor, human, expressed in place of murine TNF in huTNFKI mice; stained inside fixed and permeabilised cells kept with brefeldin A; in the in vivo rows the hTNF of the knock-in mice; also called hTNF; human TNF
T1 sequence (P01375 whole entry): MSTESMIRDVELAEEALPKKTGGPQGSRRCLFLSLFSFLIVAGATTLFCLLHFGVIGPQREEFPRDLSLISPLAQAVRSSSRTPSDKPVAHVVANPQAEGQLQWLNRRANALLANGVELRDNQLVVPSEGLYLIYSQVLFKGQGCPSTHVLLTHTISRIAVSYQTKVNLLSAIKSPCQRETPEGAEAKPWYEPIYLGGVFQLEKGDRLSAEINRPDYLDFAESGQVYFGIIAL

[2] = biological target: T2, mouse tumor necrosis factor (TNF) (Mus musculus C57Bl/6, UniProt P06804); experiment: as above; conditions: one partner purified
T2 construct: tumor necrosis factor, mouse; stained inside fixed and permeabilised cells kept with brefeldin A; also called mouse TNF; murine TNF
T2 sequence (P06804 whole entry): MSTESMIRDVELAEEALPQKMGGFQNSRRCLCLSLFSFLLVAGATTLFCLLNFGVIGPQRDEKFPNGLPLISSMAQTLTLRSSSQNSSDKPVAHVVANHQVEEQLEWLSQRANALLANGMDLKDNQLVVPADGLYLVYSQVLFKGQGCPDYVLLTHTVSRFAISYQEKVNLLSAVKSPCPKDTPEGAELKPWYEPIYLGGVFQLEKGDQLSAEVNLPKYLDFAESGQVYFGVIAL

[3] = biological target: fluorescent-binding TNF nanobody (BTN-Kat) (Bactrian camel); experiment: SEC; Superose 6, 5 mg/mL protein, 20 mM NaPi pH 7.4, 150 mM NaCl, 0.5 mL/min; apparent molecular mass from calibration with standard proteins

B1: fluorescent-binding TNF nanobody (BTN-Kat) (VHH)
VHH: QVQLVESGGGSVQAGGSLRLSCAASGSTNSELCMAWFREVPGKEREVVALVNSDGRTIYGEAVKGRFTMSKDNAKNTLYLQMNSLKAEDTAMYYCAAGPGFFGRCNYNSVGQGTQVTVSS
notes: flexible glycine-serine linker; far-red fluorescent protein Katushka (TurboFP635); A mixture of oligomeric forms was used in all experiments; Expression and purification are in Method S1; also called VHH41 fused to Katushka; source: E. coli (BL21(DE3) is named in the title of Result S1), purified
Q: Does B1 bind [1]?
A: binds

Q: Does B1 bind [2]?
A: binds

Q: And the stoichiometry N [3]?
A: 2 and 3
